This series concerns MS2 coat protein. Briefly: apparent KD of MS2 coat protein; higher = weaker reporter binding. Particulars: Eterna round: R107. In outline:
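For every design, apparent KD is the median of normalised binding-curve fits from its clusters. The RNA switches were transcribed on-chip from Illumina sequencing clusters and titrated with SNAP-549-labelled MS2 coat protein (twofold steps, 0.7 or 1.5 nM to 3 µM; 0.8–1.5 h to 10–20 min per step). Titrations used 100 mM Tris-HCl pH 7.5, 80 mM KCl, 4 mM MgCl2, without or with constant ligand.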

The mark [1] stands for this setting: input ligand: theophylline 20 uM.
[2] abbreviates: input ligand: theophylline 2 mM.
[3] abbreviates: input ligand: tryptophan 2.4 mM.

With “ACAUGAGGAUCACCCAUGUAUGACUAUCCUCGAGGACCGGUACGGCCGCCACUCGAACGAGUGGCUCGCGAGUGCGCACUCGCGG [5'end-1]”, the “apparent KD of MS2 coat protein” value runs as follows: (input ligand: arginine 13.2 mM) 12.4 nM; (input ligand: none) 11.4 nM; under setting [1], 15.6 nM; under setting [2], 12.9 nM; under setting [3], 11.6 nM.
As to “ACGACGCAUACAGAUACCAGUAGCCGAGAAACAUGAGGAUCACCCAUGUCGAGCGACAACUGCCCUUGGCAGCUGUAUGCGUCAG [SSTheo B #12]”, the “apparent KD of MS2 coat protein” value came out at 8.02 nM (input ligand: arginine 13.2 mM), 10.3 nM under setting [1] and 8.02 nM under setting [3].
“GGGCGCGUGGACCGGCGUGCUCCGCUCCGUCGAGGACCGGUACGGCCGCCACUCGACAUGAGGAUCACCCAUGUGCGAGCUCGCG [#1 Exclusion - Tryptophan A Attempt #15 (HarryS)]”: the “apparent KD of MS2 coat protein” value is, setting by setting: (input ligand: arginine 13.2 mM) 16.2 nM; (input ligand: none) 19.3 nM; under setting [1], 39.8 nM; under setting [2], 32.1 nM; under setting [3], 191 nM.
Regarding “GCAUCCUAGUCGGCCGCCACUGACAUGAGGAUCACCCAUGUACAUGAGGAUCACCCAUGUUGUAACAGGACCGGGACUAGGAUGC [SS Tryp B #18]”, the “apparent KD of MS2 coat protein” value by setting is: (input ligand: arginine 13.2 mM) 69.3 nM; under setting [1], 112 nM; under setting [2], 141 nM.
For “GGGAGGUAGGCGGCCGCCACUGAUUUUCAUAUAUAUAUAACAUGAGGAUCACCCAUGUAGAUAUGCAGGACCGGGCCUGUUUUUU [aaaK]” the same measures were 18.8 nM, 30.5 nM and 26.3 nM.
Turning to “AAUAGCAUGAGGAUCACCCAUGUAAAAGAUACCAGAGUGAUGAUCCUCCCUUGGCAGCUUAACGCUGAUUGAUUACAAUCAGCGA”, the “apparent KD of MS2 coat protein” value came to 37 nM (input ligand: arginine 13.2 mM); 44.9 nM (input ligand: none); 97.8 nM under setting [1]; 229 nM under setting [2]; 34.4 nM under setting [3].
For “UGUAUGGACUGAAGGAGCGCCUCAAAAUAACUUGAGGAUCACCCAAGUAAGGCGAAAGCCGGGCAGGUAGGUCGCAGUCCAUACU [ArgBX 3]” the same measures were 24.1 nM, 10.6 nM, 28.1 nM, 15.2 nM and 12.4 nM.
Consider “AAGAAGUUUUGAUUUUUAUGAAGUAGUGAUACCAGUCAAGAAAGAGACCCUUGGCAGCGCAACAUGAGGAUCACCCAUGUAAGAA [A random design]”, for which the “apparent KD of MS2 coat protein” value is, setting by setting: (input ligand: arginine 13.2 mM) 26.2 nM; under setting [1], 26.7 nM; under setting [3], 24.2 nM.
In the case of “CGUCGAGACUGAAGGAGCGAGAUAACAACAUUGGGUCUCAACACAUGAGGAUCACCCAUGUCUCAGGUAGGUCGCGGUGUCACCG [Exclusion Arginine B GF21]”, the “apparent KD of MS2 coat protein” value (input ligand: arginine 13.2 mM) amounted to 142 nM; the “apparent KD of MS2 coat protein” value (input ligand: none) was found to be 195 nM; the “apparent KD of MS2 coat protein” value under setting [1] was determined as 211 nM; the “apparent KD of MS2 coat protein” value under setting [2] came to 150 nM; the “apparent KD of MS2 coat protein” value under setting [3] was 132 nM.
Turning to “GGUGAUCCGUAUCACCGGAUCAUCGGUGAUACCAGCAUCGAAAGAUGCCCUUGGCAGCACCAACAUGAGGAUCACCCAUGUAAUA [(M)'-(T)'-(M)''-(T1)-(T2)-(M1)-(M2)_Design6]”, the “apparent KD of MS2 coat protein” value was 70.3 nM (input ligand: arginine 13.2 mM), 67 nM under setting [1] and 98.4 nM under setting [3].
For “AAUAACAUGAGGAUCACCCAUGUAAAAGAUACCAGAUGCAUGAUGAUCCCUUGGCAGCUUAACGCUGAUUGGAAACAAUCAGCGA [Mat - Same State Theophlline A - Mod of Eli - D9]” the same measures were 175 nM, 62.1 nM and 14.7 nM.
Turning to “AAUUAUCAGUCGGCCGCCACUGACACAUGAGGAUCACCCAUGUAAUAUGGGUAAAAUUAACUGAACAGGACCGGGACAAAUGCUA [JR_SSTryptoB_Sub021]”, the “apparent KD of MS2 coat protein” value is, setting by setting: (input ligand: arginine 13.2 mM) 135 nM; under setting [1], 472 nM; under setting [2], 803 nM.
With “GGAUAGGACACGGCCGCCACUAGCUAGGAUACUAGCAACAUUUCCUCAUAUGAGGAUCACCCAUAUAGGACCGGGUGUCCUAUCG”, the “apparent KD of MS2 coat protein” value reads like this: (input ligand: arginine 13.2 mM) 215 nM; (input ligand: none) 376 nM; under setting [1], 389 nM; under setting [2], 471 nM; under setting [3], 1140 nM.
For “ACUACAUGAGGAUCACCCAUGUGUACUGAAGGAGCGGCGGAAACGCCAGGUAGGUCGCAGUACACCUCAACCAGCGGUCCUAAGU [EAA NP+V+V2 #1]” the same measures were 30 nM, 38.2 nM, 85.9 nM, 115 nM and 51.1 nM.
The like results for “CGGUAACCACAUGAGGAUCACCCAUGUGAAGGAGCGGCGAAUAAGCCAGGUAGGUCGCGCAUGAAUAAAUCAUGUAGGUGCCGAA [XArg-A 15 NuPack]” were, in that order, 31.2 nM, 48.4 nM, 69.7 nM, 156 nM and 99.8 nM.
